A word on the Kd: it is the equilibrium constant for the complex coming apart.

Positions count from the first letter of the chain named.

The values below come from patent publication US20220281976A1 (Alector, published 2022).

Sequences and labels used below:
B1: C-60 (antibody, V domains shown)
VH: QVQLVQSGAEVKKPGASVKVSCKASGYTFTSYYMHWVRQAPGQGLEWMGVINPSGGSTSYAQKFQGRVTMTRDTSTSTVYMELSSLRSEDTAVYYCARESQYYDVHGMDVWGQGTTVTVSS
VL: DIQLTQSPSSLSASVGDRVTITCRASQSISSYLNWYQQKPGKAPKLLIYAASSLQSGVPSRFSGSGSGTDFTLTISSLQPEDFATYYCQQSVHVPITFGGGTKVEIK
notes: human IgG1
B2: C-61 (antibody, V domains shown)
VH: B1 VH
VL: EIVLTQSPGTLSLSPGERATLSCRASQSVSSSYLAWYQQKPGQAPRLLIYGASSRATGIPDRFSGSGSGTDFTLTISRLEPEDFAVYYCQQYYGLPLTFGGGTKVEIK
notes: human IgG1
B3: C-72 (antibody, V domains shown)
VH: QVQLVESGGGVVQPGRSLRLSCAASGFTFSSYGMHWVRQAPGKGLEWVAVIWYDGSNKYYADSVKGRFTISRDNSKNTLYLQMNSLRAEDTAVYYCAKEGGTYSDDFDLWGGGTLVTVSS
VL: B1 VL with L4M, L11V, S28G, Y32W, N34A, S91A, V92S, H93S, V94F, I96L
notes: human IgG1
B4: C-65 (antibody, V domains shown)
VH: B1 VH
VL: B1 VL with L4M, S91Q, V92Y, H93T, V94L, I96P
notes: human IgG1
B5: C-75 (antibody, V domains shown)
VH: EVQLLESGGGLVQPGGSLRLSCAASGFTFSSYAMSWVRQAPGKGLEWVSAISASGGSTYYADSVKGRFTISRDNSKNTLYLQMNSLRAEDTAVYYCARLHMTGTASSGMDVWGQGTTVTVSS
VL: DIVMTQSPDSLAVSLGERATINCKSSQSVLYSSNNKNYLAWYQQKPGQAPRLLIYGASSRATGIPDRFSGSGSGTDFTLTISRLEPEDFAVYYCQQDYSSPLTFGGGTKVEIK
notes: human IgG1
B6: C-76 (antibody, V domains shown)
VH: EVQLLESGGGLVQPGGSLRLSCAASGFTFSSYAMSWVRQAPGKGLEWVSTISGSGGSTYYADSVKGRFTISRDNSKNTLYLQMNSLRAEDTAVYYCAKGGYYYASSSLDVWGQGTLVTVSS
VL: B5 VL with S99N
notes: human IgG1
B7: C-77 (antibody, V domains shown)
VH: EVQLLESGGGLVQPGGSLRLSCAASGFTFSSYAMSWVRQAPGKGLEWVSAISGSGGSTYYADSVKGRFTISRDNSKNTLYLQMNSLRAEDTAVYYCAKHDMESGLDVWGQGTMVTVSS
VL: B5 VL with M4L, S99V
notes: human IgG1
B8: C-68 (antibody, V domains shown)
VH: QVQLQESGPGLVKPSQTLSLTCTVSGGSISSGGYYWSWIRQHPGKGLEWIGNIYYSGSTYYNPSLKSRVTISVDTSKNQFSLKLSSVTAADTAVYYCARDLPNSGSPGSDYFDYWGQGTLVTVSS
VL: B2 VL with Y93D, G94N, L95Y, L97P
notes: human IgG1
B9: C-69 (antibody, V domains shown)
VH: EVQLVESGGGLVQPGGSLRLSCAASGFTFSSYWMSWVRQAPGKGLEWVANIKSDGSEKYYVDSVKGRFTISRDNAKNSLYLQMNSLRAEDTAVYYCARAETYQLSSAFDIWGQGTMVTVSS
VL: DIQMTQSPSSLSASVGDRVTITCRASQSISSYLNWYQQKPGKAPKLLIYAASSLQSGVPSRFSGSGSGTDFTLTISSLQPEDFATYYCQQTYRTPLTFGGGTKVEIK
notes: human IgG1
B10: C-6 (antibody, V domains shown)
VH: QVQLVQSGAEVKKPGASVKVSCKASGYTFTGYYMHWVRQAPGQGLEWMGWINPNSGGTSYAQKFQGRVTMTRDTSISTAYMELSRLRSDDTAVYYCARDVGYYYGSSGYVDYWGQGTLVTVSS
VL: DIQMTQSPSSVSASVGDRVTITCRASQGIDSWLAWYQQKPGKAPKLLIYAASSLQSGVPSRFSGSGSGTDFTLTISSLQPEDFATYYCQQASAHPPWTFGGGTKVEIK
notes: human IgG1

The target in the first assay is T1, human CD33 (human, UniProt P20138 18-364).
T1 construct: CD33 on human primary dendritic cells, macrophages, monocytes and T cells and on CHO cells expressing recombinant human CD33; also called Siglec-3; hCD33
T1 sequence (P20138 18-364): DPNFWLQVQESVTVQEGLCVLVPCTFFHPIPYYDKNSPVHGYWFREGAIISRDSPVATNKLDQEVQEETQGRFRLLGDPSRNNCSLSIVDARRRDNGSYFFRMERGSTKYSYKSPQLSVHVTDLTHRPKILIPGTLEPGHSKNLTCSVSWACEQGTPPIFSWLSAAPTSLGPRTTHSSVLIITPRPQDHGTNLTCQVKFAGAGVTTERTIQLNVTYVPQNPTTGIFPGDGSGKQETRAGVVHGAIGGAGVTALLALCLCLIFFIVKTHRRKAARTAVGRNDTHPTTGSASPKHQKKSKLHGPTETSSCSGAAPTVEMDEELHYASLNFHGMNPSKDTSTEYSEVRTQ
The experiment in a line: flow cytometry, human primary dendritic cells.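 Further: binding of anti-CD33 antibodies (10 ug/ml, 1 h on ice) to human primary dendritic cells, detected with a PE-labelled secondary antibody, reported as flow cytometry MFI.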
Protocol: Initial characterization of CD33 antibodies involved determining their ability to bind CD33 expressed on a CHO cell line, on human primary monocytes, human primary macrophages, human primary dendritic cells, and on human primary T cells. Cells were harvested, plated at 10⁶/ml in a 96 well plate, and incubated in 100 ul PBS containing 2% FBS, 2 mM EDTA and 10 ug/ml Mab and Fc blocking reagent for 1 hour in ice. Cells were washed twice and incubated in 100 ul PBS containing 2% FBS, 2 mM EDTA and 5 ug/ml PE-conjugated secondary antibody for 30 minutes on ice. Cells were washed twice in cold PBS and analyze by flow cytometry on a BD FACS Canto. Data analysis and calculation of MFI values was performed with FlowJo (TreeStar) software version 10.0.7.
Consider B1, for which the “DC MFI” value stood at 1040.
Still for that read-out and setting: the same measure for B2: 1310; for B3: 742; for B4: 1330.
Turning to B5, the “DC MFI” value stood at 46.
Regarding B6, the “DC MFI” value turned out to be 43.
Consider B7, for which the “DC MFI” value was 43.
As for B8, the “DC MFI” value turned out to be 526.
For B9, the “DC MFI” value came out at 923.
B10: the “DC MFI” value stood at 1040.

Another assay has as its target T1, human CD33. The experiment in a line: flow cytometry, human primary T cells.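 Further: binding of anti-CD33 antibodies at 10 ug/ml to human primary T cells, 1 h on ice, detected with PE-labelled secondary antibody, read as flow cytometry MFI.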 Background: In flow cytometry, cells or beads pass a laser one at a time.
As for B1, the “T cell MFI” value was determined as 221.
Take B2: the “T cell MFI” value stood at 242.
As to B3, the “T cell MFI” value is 330.
Same read-out and setting: the same measure for B4: 216; for B5: 399; for B6: 185.
Consider B7, for which the “T cell MFI” value was found to be 263.
Still for that read-out and setting: next, B8: 561; B9: 318.
Turning to B10, the “T cell MFI” value turned out to be 46.

A further assay deals with T2, mouse CD33 Fc fusion protein (mouse, UniProt Q63994 18-240, limits assumed).
T2 construct: also called mCD33-Fc
T2 sequence: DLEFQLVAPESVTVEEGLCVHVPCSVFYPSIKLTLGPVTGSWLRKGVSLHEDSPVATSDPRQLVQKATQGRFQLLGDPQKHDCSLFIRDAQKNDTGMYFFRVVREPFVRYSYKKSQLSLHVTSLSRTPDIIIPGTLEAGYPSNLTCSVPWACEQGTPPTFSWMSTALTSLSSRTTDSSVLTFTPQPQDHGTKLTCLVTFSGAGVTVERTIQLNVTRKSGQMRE
Briefly: ForteBio BLI or MSD-SET. (In general: Biolayer interferometry detects binding as a change in optical thickness at a sensor tip.)
Consider B1, for which the binding result is listed as “no binding (tested: 100 nM)”.
B2: the binding result is given as “no binding (tested: 100 nM)”.
For the molecule B3, the binding result is “no binding (tested: 100 nM)”.
Regarding B4, the binding result is “no binding (tested: 100 nM)”.
With B5, the binding result was “no binding (tested: 100 nM)”.
Take B6: the binding result was “no binding (tested: 100 nM)”.
On to B7, for which the binding result is listed as “no binding (tested: 100 nM)”.
Consider B8, for which the binding result is “no binding (tested: 100 nM)”.
Turning to B9, the binding result was “no binding (tested: 100 nM)”.
Take B10: the binding result was “no binding (tested: 100 nM)”.

A further assay has as its target T1, human CD33. Briefly: cell-based or functional assay.
Turning to B1, the “Percent CD33 Surface Expression, DC % CD33” value was determined as 26.8%; the “Percent CD33 Surface Expression, Macrophage % CD33” value stood at 45.4%; the “Percent CD33 Surface Expression, Monocyte % CD33” value was found to be 41.7%.
Consider B2, for which the “Percent CD33 Surface Expression, DC % CD33” value is 22.8%; the “Percent CD33 Surface Expression, Macrophage % CD33” value is 50.8%; the “Percent CD33 Surface Expression, Monocyte % CD33” value came to 38.3%.
For the molecule B3, the “Percent CD33 Surface Expression, DC % CD33” value came out at 43.4%; the “Percent CD33 Surface Expression, Macrophage % CD33” value amounted to 47.5%; the “Percent CD33 Surface Expression, Monocyte % CD33” value amounted to 41.8%.
Consider B4, for which the “Percent CD33 Surface Expression, DC % CD33” value amounted to 26.9%; the “Percent CD33 Surface Expression, Macrophage % CD33” value was 44.5%; the “Percent CD33 Surface Expression, Monocyte % CD33” value was found to be 31.2%.
B5: the “Percent CD33 Surface Expression, DC % CD33” value turned out to be 88.7% and the “Percent CD33 Surface Expression, Monocyte % CD33” value is 85.9%.
Taken in the same sequence, the figures for B6 were 85.5% and 92.4%.
As to B7, the “Percent CD33 Surface Expression, DC % CD33” value was 84.2% and the “Percent CD33 Surface Expression, Monocyte % CD33” value came out at 87.6%.
Regarding B8, the “Percent CD33 Surface Expression, DC % CD33” value is 59.1% and the “Percent CD33 Surface Expression, Monocyte % CD33” value was 71.9%.
For the molecule B9, the “Percent CD33 Surface Expression, DC % CD33” value is 21.7%; the “Percent CD33 Surface Expression, Macrophage % CD33” value was determined as 41.8%; the “Percent CD33 Surface Expression, Monocyte % CD33” value was determined as 29.3%.
Taken in the same sequence, the figures for B10 were 83%, 98.6% and 91%.

For a further assay, the target named is T3, human monomeric His tagged CD33 protein (human, UniProt P20138 18-259).
T3 construct: also called hCD33-His
T3 sequence (P20138 18-259 limits assumed): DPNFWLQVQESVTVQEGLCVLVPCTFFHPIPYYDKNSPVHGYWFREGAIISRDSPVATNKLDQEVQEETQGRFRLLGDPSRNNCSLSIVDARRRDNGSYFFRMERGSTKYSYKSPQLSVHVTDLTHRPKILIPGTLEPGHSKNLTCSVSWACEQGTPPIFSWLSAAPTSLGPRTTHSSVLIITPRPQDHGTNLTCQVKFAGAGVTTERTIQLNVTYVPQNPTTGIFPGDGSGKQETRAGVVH
The experiment in a line: ForteBio BLI or MSD-SET, IgG, monomeric antigen.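 Further: BLI: antibodies captured on AHQ sensors, 100 nM antigen association 5 min, dissociation 5 min, 1:1 fit. MSD-SET: antigen fixed at 50 pM, antibody titrated, quadratic fit.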
Take B1: the Kd was found to be 9.33 nM.
On the same count and under the same terms, next, B2: 13.4 nM; B3: 7.7 nM.
Same read-out and setting: the same measure for B4: 7.67 nM; for B5: 4.63 nM.
B6 yielded a Kd of 13.5 nM.
As to B7, binding was put at a Kd of 11.1 nM.
The same measure, in the same setting: the same measure for B8: 30.9 nM.
The molecule B9 returned a dissociation constant (Kd) of 22.1 nM.
B10 had a dissociation constant (Kd) of 8.94 nM.

In the next assay the target is T4, human CD33 Fc fusion protein (human, UniProt P20138 18-259).
T4 construct: also called hCD33-Fc; human CD33/Fc chimera (R&D Systems)
T4 sequence (P20138 18-259 limits assumed): as above
Briefly: RBC adhesion to plate-bound CD33-Fc; antibody 1.0 ug/ml.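 Further: red blood cells adhering to plate-coated CD33-Fc after 1 h antibody pretreatment, then 1 h at room temperature, bound cells read as peroxidase activity after lysis.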
Turning to B1, the “Percent RBC Binding to CD33” value stood at 12.9%.
Turning to B2, the “Percent RBC Binding to CD33” value turned out to be 9.73%.
With B3, the “Percent RBC Binding to CD33” value came to 18.9%.
Turning to B4, the “Percent RBC Binding to CD33” value was 9.33%.
In the case of B5, the “Percent RBC Binding to CD33” value stood at 67%.
B6: the “Percent RBC Binding to CD33” value worked out at 87.7%.
Turning to B7, the “Percent RBC Binding to CD33” value turned out to be 77.7%.
Same read-out and setting: next, B8: 10.1%; B9: 8.95%.
Regarding B10, the “Percent RBC Binding to CD33” value was 98.1%.

In a further assay the target is T1, human CD33. The experiment in a line: flow cytometry, human primary monocytes.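 Further: binding of anti-CD33 antibodies at 10 ug/ml to human primary monocytes, 1 h on ice, detected by PE-labelled secondary antibody, flow cytometry readout as mean fluorescence intensity.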 On the set-up: reference not given here.
For the molecule B1, the “Monocyte MFI” value is 151.
For B2, the “Monocyte MFI” value was determined as 122.
On the same count and under the same terms, next, B3: 118; B4: 161; B5: 686.
As to B6, the “Monocyte MFI” value was determined as 654.
Same read-out and setting: the same measure for B7: 698; for B8: 115; for B9: 80.
Take B10: the “Monocyte MFI” value worked out at 131.

The next assay addresses T4, human CD33 Fc fusion protein. The experiment in a line: RBC adhesion to plate-bound CD33-Fc; antibody 0.5 ug/ml.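 Further: Plate-coated CD33-Fc preincubated 1 h with antibody, then red blood cells added for 1 h at room temperature, adherent cells lysed and quantified via peroxidase activity.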
For B1, the “Percent RBC Binding to CD33” value was 10.7%.
Consider B2, for which the “Percent RBC Binding to CD33” value amounted to 13.3%.
Take B3: the “Percent RBC Binding to CD33” value turned out to be 36.2%.
Still for that read-out and setting: next, B4: 11.5%; B5: 72.6%; B6: 85.5%.
The same measure, in the same setting: next, B7: 61.4%; B8: 31.6%.
The same measure, in the same setting: the same measure for B9: 11.3%; for B10: 102%.

A further assay addresses T1, human CD33. The experiment in a line: flow cytometry, human primary macrophages.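 Further: binding of CD33 antibodies at 10 µg/ml to human primary macrophages, 1 h on ice, detected with PE-labelled secondary antibody by flow cytometry, reported as MFI.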
Consider B1, for which the “Macrophage MFI” value came to 775.
On to B2, for which the “Macrophage MFI” value turned out to be 797.
With B3, the “Macrophage MFI” value worked out at 657.
As to B4, the “Macrophage MFI” value stood at 852.
Take B5: the “Macrophage MFI” value worked out at 778.
For the molecule B6, the “Macrophage MFI” value stood at 455.
Same read-out and setting: the same measure for B7: 493; for B8: 752.
For B9, the “Macrophage MFI” value stood at 628.
With B10, the “Macrophage MFI” value is 871.

A further assay deals with T4, human CD33 Fc fusion protein. Briefly: ForteBio BLI or MSD-SET, IgG, avid.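 Further: Anti-CD33 IgG affinity by BLI, IgG captured on AHQ sensors with antigen in solution and a one-to-one kinetic fit, or by MSD solution equilibrium titration with quadratic fit.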
Protocol: The binding affinity of each anti-CD33 antibody was determined by measuring their KD by ForteBio or MSD-SET. […] Briefly, ForteBio affinity measurements were performed by loading IgGs on-line onto AHQ sensors. Sensors were equilibrated off-line in assay buffer for 30 min and then monitored on-line for 60 seconds for baseline establishment. Sensors with loaded IgGs were exposed to 100 nM antigen for 5 minutes, then transferred to assay buffer for 5 min for off-rate measurement. Kinetics were analyzed using the 1:1 binding model.
Solution equilibrium titrations (SET) were performed in PBS+0.1% IgG-Free BSA (PBSF) with antigen held constant at 50 pM and incubated with 3-to 5-fold serial dilutions of antibody starting at 10 nM. Antibodies (20 nM in PBS) were coated onto standard bind MSD-ECL plates overnight at 4° C. or at room temperature for 30 min. Plates were then blocked for 30 min with shaking at 700 rpm, followed by three washes with wash buffer (PBSF+0.05% Tween 20). SET samples were applied and incubated on the plates for 150s with shaking at 700 rpm followed by one wash. Antigen captured on a plate was detected with 250 ng/mL sulfotag-labeled streptavidin in PBSF by incubation on the plate for 3 min. The plates were washed three times with wash buffer and then read on the MSD Sector Imager 2400 instrument using 1× Read Buffer T with surfactant. The percent free antigen was plotted as a function of titrated antibody in Prism and fit to a quadratic equation to extract the KD. To improve throughput, liquid handling robots were used throughout MSD-SET experiments, including SET sample preparation.
Turning to B1, the Kd was 1.66 nM.
Still for that read-out and setting: next, B2: 2.06 nM; B3: 1.77 nM; B4: 1.62 nM.
For B5, the Kd was determined as 1.04 nM.
On the same count and under the same terms, the same measure for B6: 3.01 nM.
B7 returned an equilibrium dissociation constant (Kd) of 2.15 nM.
For B8, binding was put at a Kd of 4.61 nM.
As to B9, the affinity, expressed as Kd, was 2.94 nM.
B10: the dissociation constant (Kd) was found to be 2.83 nM.
